# Measurements taken from doi:10.1101/2024.03.26.586676 (bioRxiv, 2024).
# Positions count from the first letter of the chain named. Read-outs that look alike come from different tables or passages of the source.
# T1: Hrp48-RRM1 (Drosophila melanogaster, UniProt P48809 1-88)
# T1 sequence: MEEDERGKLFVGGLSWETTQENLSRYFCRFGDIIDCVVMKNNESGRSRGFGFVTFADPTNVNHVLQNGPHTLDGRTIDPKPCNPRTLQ
# T2: Hrp48-RRM12 (Drosophila melanogaster, UniProt P48809 1-173)
# T2 sequence: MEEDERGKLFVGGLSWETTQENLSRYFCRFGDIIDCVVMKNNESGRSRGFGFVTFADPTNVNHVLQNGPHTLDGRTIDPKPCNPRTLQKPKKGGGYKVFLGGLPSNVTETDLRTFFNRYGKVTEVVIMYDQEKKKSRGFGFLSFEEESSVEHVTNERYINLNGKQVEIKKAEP
# T3: Hrp48-RRM2 (Drosophila melanogaster, UniProt P48809 89-173)
# T3 sequence: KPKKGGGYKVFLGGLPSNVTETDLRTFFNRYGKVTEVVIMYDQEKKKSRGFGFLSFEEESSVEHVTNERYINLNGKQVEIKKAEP
# T4: Hrp48-RRM12;Sxl-dRBD3;Unr-CSD12 (Drosophila melanogaster;Drosophila …, UniProt P48809;P19339;B7Z0E2 1-173;123-294;186-337, ||)
# T4 sequence 1: T2 sequence
# T4 sequence 2: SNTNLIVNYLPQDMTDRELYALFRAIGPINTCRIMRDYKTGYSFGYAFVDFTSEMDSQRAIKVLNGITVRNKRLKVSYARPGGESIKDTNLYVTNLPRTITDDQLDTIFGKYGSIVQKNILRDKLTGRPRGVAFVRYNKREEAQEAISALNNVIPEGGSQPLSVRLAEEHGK
# T4 sequence 3: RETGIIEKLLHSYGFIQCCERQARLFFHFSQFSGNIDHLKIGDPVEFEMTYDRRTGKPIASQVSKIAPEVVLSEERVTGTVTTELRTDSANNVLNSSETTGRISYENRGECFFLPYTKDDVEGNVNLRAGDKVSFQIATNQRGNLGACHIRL
# T5: Sxl-dRBD3;Unr-CSD12 (Drosophila melanogaster;Drosophila …, UniProt P19339;B7Z0E2 123-294;186-337, |)
# T5 sequence 1: T4 sequence 2
# T5 sequence 2: T4 sequence 3
# B1: 6-mer-2 (ssRNA)
# RNA: UAGGAU
# B2: 10-mer-WT (ssRNA)
# RNA: UAGGAUUAAG
# B3: 6-mer-4 (ssRNA)
# RNA: AAGAAC
# B4: 4-mer-6 (ssRNA)
# RNA: UAAG
# B5: 6-mer-1 (ssRNA)
# RNA: AACCUA
# B6: WT-30-mer (ssRNA)
# RNA: UUUUUUUGAGCACGUGAACCUAGGAUUAAG
# B7: GG-30-mer-Cy5 (ssRNA)
# RNA: B6 RNA with C19G, C20G
# B8: GG-30-mer (ssRNA)
# RNA: B6 RNA with C19G, C20G
# B9: 4-mer-3 (ssRNA)
# RNA: UAGG
# B10: 9-mer (P-element site) (ssRNA)
# RNA: UAGGUUAAG
# B11: 6-mer-3 (ssRNA)
# RNA: AUUAAG
# B12: Hrp48-RRM2 (residues 89-173) (domain or fragment, Drosophila melanogaster, UniProt P48809 89-173, looked up)
# chain: T3 sequence
# How the values were obtained:
# [1] = target: T1, Hrp48-RRM1; assay: ITC
# [2] = target: T2, Hrp48-RRM12; assay: ITC
# [3] = target: T3, Hrp48-RRM2; assay: NMR
# [4] = target: T1, Hrp48-RRM1; assay: ITC; remark: listed apart in the source
# [5] = target: T2, Hrp48-RRM12; assay: NMR
# [6] = target: T3, Hrp48-RRM2; assay: NMR; remark: listed apart in the source
# [7] = target: T4, Hrp48-RRM12;Sxl-dRBD3;Unr-CSD12; assay: SEC-MALS
# [8] = target: T5, Sxl-dRBD3;Unr-CSD12; assay: SEC-MALS
# [9] = target: T2, Hrp48-RRM12; assay: EMSA
# [10] = target: T4, Hrp48-RRM12;Sxl-dRBD3;Unr-CSD12; assay: SEC-MALS; remark: listed apart in the source
# [11] = target: T5, Sxl-dRBD3;Unr-CSD12; assay: SEC
# [12] = target: T2, Hrp48-RRM12; assay: ITC; remark: listed apart in the source
# [13] = target: T2, Hrp48-RRM12; assay: NMR; remark: listed apart in the source
# [14] = target: T1, Hrp48-RRM1; assay: NMR
# [15] = target: the molecule itself; assay: SEC-MALS
binder,measurement,setting,value
B1,Kd,[1],8700 nM
B2,Kd,[2],17.3 ± 2.9 nM
B3,binding result,[3],binds
same,binding result,[4],binds
B4,binding result,[5],binds
B5,binding result,[6],no binding
same,Kd,[1],1300 nM
B6,binding result,[7],binds
same,binding result,[8],binds
B7,binding result,[9],binds
B8,binding result,[10],binds
same,binding result,[11],binds
same,binding result,[12],binds
B9,binding result,[13],binds
B10,Kd,[2],14.8 ± 3.7 nM
B11,binding result,[3],binds
same,binding result,[14],binds
B12,stoichiometry N,[15],4
